Experimental data reported in patent US20120220489A1.

What was measured:
[1] = molecular target: ERK1 (p44) inactive (GST tagged), human, Invitrogen PV 3312 (human) (UniProt P27361); assay: RPA, competition: +free H3 peptide 100 nM
[2] = molecular target: pRb recombinant protein, human, Active Motif 31 128 (human) (UniProt P06400); assay: RPA, competition: +free H3 peptide 100 nM
[3] = molecular target: Erk1-BSA 2.7x peptide-protein conjugate (human; bovine); assay: RPA, competition: +free H3 peptide 100 nM
Chain of Erk1-BSA 2.7x peptide-protein conjugate (human; bovine) (peptide, as listed by the source limits assumed, chain 1 of 2): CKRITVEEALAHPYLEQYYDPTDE
Chain of Erk1-BSA 2.7x peptide-protein conjugate (human; bovine) (P02769 25-607 limits assumed, chain 2 of 2): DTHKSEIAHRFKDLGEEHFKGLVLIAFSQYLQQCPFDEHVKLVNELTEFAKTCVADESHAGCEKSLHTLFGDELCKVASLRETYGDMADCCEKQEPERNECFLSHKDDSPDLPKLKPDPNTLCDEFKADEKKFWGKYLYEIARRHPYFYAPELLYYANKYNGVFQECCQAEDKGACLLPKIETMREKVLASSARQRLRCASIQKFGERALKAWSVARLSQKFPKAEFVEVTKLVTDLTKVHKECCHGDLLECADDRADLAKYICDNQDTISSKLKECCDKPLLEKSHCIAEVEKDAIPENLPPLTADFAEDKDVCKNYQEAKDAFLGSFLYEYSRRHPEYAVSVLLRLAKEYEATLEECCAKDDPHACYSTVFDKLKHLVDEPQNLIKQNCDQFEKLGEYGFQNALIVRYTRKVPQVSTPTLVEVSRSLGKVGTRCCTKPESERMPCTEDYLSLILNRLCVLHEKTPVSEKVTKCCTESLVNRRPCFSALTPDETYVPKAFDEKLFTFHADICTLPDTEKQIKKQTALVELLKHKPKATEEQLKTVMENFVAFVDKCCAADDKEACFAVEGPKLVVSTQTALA

[4] = molecular target: Histone H3 recombinant protein, calf, Roche 11 034 758 001 (calf) (UniProt P68432); assay: RPA, competition: +free H3 peptide 100 nM
[5] = molecular target: pErk1/2-BSA 2.7x peptide-protein conjugate (human; bovine); assay: RPA, competition: +free H3 peptide 100 nM
Chain of pErk1/2-BSA 2.7x peptide-protein conjugate (human; bovine) (P02769 25-607 limits assumed): as the sequence (P02769 25-607 limits assumed, chain 2 of 2) above

[6] = molecular target: ERK1 (p44), human, Cell Signaling Technology 7416 (human) (UniProt P27361); assay: RPA, competition: +free H3 peptide 100 nM
[7] = molecular target: ERK2 (p42), human, Biosource PHO 0104 (human) (UniProt P28482); assay: RPA, competition: +free Erk1 peptide 1000 nM
Chain of UniProt P28482 (P28482 2-360 limits assumed): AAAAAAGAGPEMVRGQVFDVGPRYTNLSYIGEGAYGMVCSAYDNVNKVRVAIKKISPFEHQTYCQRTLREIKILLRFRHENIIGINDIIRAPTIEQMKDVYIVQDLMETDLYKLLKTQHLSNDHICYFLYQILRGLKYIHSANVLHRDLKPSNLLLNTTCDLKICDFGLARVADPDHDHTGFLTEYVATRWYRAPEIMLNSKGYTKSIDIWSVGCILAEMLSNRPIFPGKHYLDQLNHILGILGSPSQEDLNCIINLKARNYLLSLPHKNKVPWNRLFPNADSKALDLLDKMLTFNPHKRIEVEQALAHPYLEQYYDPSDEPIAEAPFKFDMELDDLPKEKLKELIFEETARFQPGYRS

[8] = molecular target: Histone H3-BSA 2.7x peptide-protein conjugate (bovine); assay: RPA, competition: +free Erk1 peptide 1000 nM
Chain of Histone H3-BSA 2.7x peptide-protein conjugate (bovine) (P02769 25-607 limits assumed): as the sequence (P02769 25-607 limits assumed, chain 2 of 2) above

[9] = molecular target: pRb-BSA 1x peptide-protein conjugate (bovine); assay: RPA, competition: +free Erk1 peptide 1000 nM
Chain of pRb-BSA 1x peptide-protein conjugate (bovine) (P02769 25-607 limits assumed): as the sequence (P02769 25-607 limits assumed, chain 2 of 2) above

[10] = molecular target: ERK1 (p44) inactive (GST tagged), human, Invitrogen PV 3312 (human) (UniProt P27361); assay: RPA, competition: +free Erk1 peptide 1000 nM
[11] = molecular target: pRb recombinant protein, human, Active Motif 31 128 (human) (UniProt P06400); assay: RPA, competition: +free Erk1 peptide 1000 nM
[12] = molecular target: Erk1-BSA 2.7x peptide-protein conjugate (human; bovine); assay: RPA, competition: +free Erk1 peptide 1000 nM
[13] = molecular target: Histone H3 recombinant protein, calf, Roche 11 034 758 001 (calf) (UniProt P68432); assay: RPA, competition: +free Erk1 peptide 1000 nM
[14] = molecular target: ERK1 (p44) active (GST tagged), human, Invitrogen PV 3311 (human) (UniProt P27361); assay: RPA, competition: +free Erk1 peptide 1000 nM
[15] = molecular target: Histone H3 recombinant protein, human, Upstate 14-494 (human) (UniProt P68431); assay: RPA, competition: +free Erk1 peptide 1000 nM
[16] = molecular target: ERK1 (p42) active (phospho), human, Active Motif 31 152 (human) (UniProt P27361); assay: RPA, competition: +free Erk1 peptide 1000 nM
[17] = molecular target: pErk1/2-BSA 2.7x peptide-protein conjugate (human; bovine); assay: RPA, competition: +free Erk1 peptide 1000 nM
[18] = molecular target: ERK1 (p44), human, Cell Signaling Technology 7416 (human) (UniProt P27361); assay: RPA, competition: +free Erk1 peptide 1000 nM
[19] = molecular target: ERK2 (p42), human, Biosource PHO 0104 (human) (UniProt P28482); assay: RPA, competition: +free pErk1/2 peptide 1000 nM
[20] = molecular target: Histone H3-BSA 2.7x peptide-protein conjugate (bovine); assay: RPA, competition: +free pErk1/2 peptide 1000 nM
[21] = molecular target: pRb-BSA 1x peptide-protein conjugate (bovine); assay: RPA, competition: +free pErk1/2 peptide 1000 nM
[22] = molecular target: ERK1 (p44) inactive (GST tagged), human, Invitrogen PV 3312 (human) (UniProt P27361); assay: RPA, competition: +free pErk1/2 peptide 1000 nM
[23] = molecular target: pRb recombinant protein, human, Active Motif 31 128 (human) (UniProt P06400); assay: RPA, competition: +free pErk1/2 peptide 1000 nM
[24] = molecular target: Erk1-BSA 2.7x peptide-protein conjugate (human; bovine); assay: RPA, competition: +free pErk1/2 peptide 1000 nM
[25] = molecular target: Histone H3 recombinant protein, calf, Roche 11 034 758 001 (calf) (UniProt P68432); assay: RPA, competition: +free pErk1/2 peptide 1000 nM
[26] = molecular target: ERK1 (p44) active (GST tagged), human, Invitrogen PV 3311 (human) (UniProt P27361); assay: RPA, competition: +free pErk1/2 peptide 1000 nM
[27] = molecular target: Histone H3 recombinant protein, human, Upstate 14-494 (human) (UniProt P68431); assay: RPA, competition: +free pErk1/2 peptide 1000 nM
[28] = molecular target: ERK1 (p42) active (phospho), human, Active Motif 31 152 (human) (UniProt P27361); assay: RPA, competition: +free pErk1/2 peptide 1000 nM
[29] = molecular target: pErk1/2-BSA 2.7x peptide-protein conjugate (human; bovine); assay: RPA, competition: +free pErk1/2 peptide 1000 nM
[30] = molecular target: ERK1 (p44), human, Cell Signaling Technology 7416 (human) (UniProt P27361); assay: RPA, competition: +free pErk1/2 peptide 1000 nM
[31] = molecular target: pRb-BSA 1x peptide-protein conjugate (bovine); assay: RPA, competition: +free pErk1/2 peptide 10 nM
[32] = molecular target: ERK1 (p44) inactive (GST tagged), human, Invitrogen PV 3312 (human) (UniProt P27361); assay: RPA, competition: +free pErk1/2 peptide 10 nM
[33] = molecular target: pRb recombinant protein, human, Active Motif 31 128 (human) (UniProt P06400); assay: RPA, competition: +free pErk1/2 peptide 10 nM
[34] = molecular target: ERK1 (p44) active (GST tagged), human, Invitrogen PV 3311 (human) (UniProt P27361); assay: RPA, competition: +free pErk1/2 peptide 10 nM
[35] = molecular target: pErk1/2-BSA 2.7x peptide-protein conjugate (human; bovine); assay: RPA, competition: +free pErk1/2 peptide 10 nM
[36] = molecular target: ERK1 (p44), human, Cell Signaling Technology 7416 (human) (UniProt P27361); assay: RPA, competition: +free pErk1/2 peptide 10 nM

Chain of UniProt P06400 (P06400 whole entry): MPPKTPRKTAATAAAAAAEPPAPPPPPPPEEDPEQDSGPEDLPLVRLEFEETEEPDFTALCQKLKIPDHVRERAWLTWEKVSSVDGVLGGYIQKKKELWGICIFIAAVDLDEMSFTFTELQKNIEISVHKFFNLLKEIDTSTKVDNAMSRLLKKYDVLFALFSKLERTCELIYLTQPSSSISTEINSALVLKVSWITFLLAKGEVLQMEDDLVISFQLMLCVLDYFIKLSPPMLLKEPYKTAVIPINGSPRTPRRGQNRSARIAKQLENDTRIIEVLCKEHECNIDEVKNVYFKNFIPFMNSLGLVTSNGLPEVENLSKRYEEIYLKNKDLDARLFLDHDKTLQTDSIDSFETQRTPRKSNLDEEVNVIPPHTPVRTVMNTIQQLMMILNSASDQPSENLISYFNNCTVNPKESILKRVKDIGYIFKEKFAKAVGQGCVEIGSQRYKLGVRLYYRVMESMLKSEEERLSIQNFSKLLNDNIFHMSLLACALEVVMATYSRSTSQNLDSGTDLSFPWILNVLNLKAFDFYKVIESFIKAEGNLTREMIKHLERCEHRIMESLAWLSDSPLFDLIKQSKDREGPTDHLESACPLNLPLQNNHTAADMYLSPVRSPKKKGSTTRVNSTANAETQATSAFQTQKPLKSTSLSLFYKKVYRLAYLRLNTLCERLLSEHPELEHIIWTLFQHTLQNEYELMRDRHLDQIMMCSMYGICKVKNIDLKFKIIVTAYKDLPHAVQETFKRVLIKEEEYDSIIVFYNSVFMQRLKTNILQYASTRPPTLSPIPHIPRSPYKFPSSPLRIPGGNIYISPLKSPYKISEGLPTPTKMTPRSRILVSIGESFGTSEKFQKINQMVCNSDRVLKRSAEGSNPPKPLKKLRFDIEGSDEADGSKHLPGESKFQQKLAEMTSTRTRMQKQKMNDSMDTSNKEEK

## Histone H3 antibody, Abcam ab1791
[1]
  maximum standard curve signal: 0.02 RFI
[2]
  maximum standard curve signal: < 0.01 RFI
[3]
  maximum standard curve signal: 0.01 RFI
[4]
  maximum standard curve signal: 0.2 RFI
[5]
  maximum standard curve signal: < 0.01 RFI
[6]
  maximum standard curve signal: < 0.01 RFI

## p44/42 MAPK (Erk1/2) antibody, Biosource 44-654G
[7]
  maximum standard curve signal: 0.01 RFI
[8]
  maximum standard curve signal: 0.02 RFI
[9]
  maximum standard curve signal: 0.01 RFI
[10]
  maximum standard curve signal: 0.02 RFI
[11]
  maximum standard curve signal: 0.01 RFI
[12]
  maximum standard curve signal: 0.14 RFI
[13]
  maximum standard curve signal: 0.01 RFI
[14]
  maximum standard curve signal: 0.02 RFI
[15]
  maximum standard curve signal: 0.01 RFI
[16]
  maximum standard curve signal: 0.01 RFI
[17]
  maximum standard curve signal: 0.01 RFI
[18]
  maximum standard curve signal: < 0.01 RFI

## p44/42 MAPK phospho (pERK1/2) Thr202/Tyr204 antibody, Cell Signaling Technology #9101
[19]
  maximum standard curve signal: 0.01 RFI
[20]
  maximum standard curve signal: 0.1 RFI
[21]
  maximum standard curve signal: 0.01 RFI
[22]
  maximum standard curve signal: 0.01 RFI
[23]
  maximum standard curve signal: 0.01 RFI
[24]
  maximum standard curve signal: 0.02 RFI
[25]
  maximum standard curve signal: 0.01 RFI
[26]
  maximum standard curve signal: 0.01 RFI
[27]
  maximum standard curve signal: 0.01 RFI
[28]
  maximum standard curve signal: 0.01 RFI
[29]
  maximum standard curve signal: 0.1 RFI
[30]
  maximum standard curve signal: < 0.01 RFI
[31]
  maximum standard curve signal: 0.01 RFI
[32]
  maximum standard curve signal: 0.01 RFI
[33]
  maximum standard curve signal: 0.01 RFI
[34]
  maximum standard curve signal: 0.05 RFI
[35]
  maximum standard curve signal: 1.05 RFI
[36]
  maximum standard curve signal: 0.01 RFI
